In FireProtDB (doi:10.1021/bi301421v) one finds Tm data, which are given here for one protein.

Where “and” joins values, the source holds several entries; their conditions need not be identical. Equal entries are not always repeated.

For this data set the following is noted: Helicobacter pylori (strain ATCC 700392 / 26695); pH 7.2; Thermal; CD; Tris-HCl 20 mM; transition: 2; reversible: yes; whole UniProt chain shown.

B1: Arginase wild type, O25949 (protein)
chain: MILVGLEAELGASKRGTDKGVRRLREALSATHGDVIKGMQTITQERCVLYKEFRYAKNFEDYYLFCKENLIPCMKEVFEKKEFPLILSSEHANMFGIFQAFRSVHKDKKIGILYLDAHADIHTAYDSDSKHIHGMPLGMVLNRVRSGFNRMSESEEKAWQKLCSLGLEKGGLEIDPKCLVYFGVRSTEQSERDVIRELQIPLFSVDAIRENMQEVVQKTKESLKAVDIIYLSLDLDIMDGKLFTSTGVRENNGLSFDELKQLLGLLLESFKDRLKAVEVTEYNPTVSIKHNNEEEKQVLEILDLIINSCKIKDKKHSFARSY
One may read the Tm as the temperature at which the thermal transition is half complete. For the protein B1, the Tm was 70 °C and 68 °C.
